# Test results as given in the supplement of paper PMC9112550, “Optimization of the antimicrobial peptide Bac7 by deep mutational scanning” (BMC Biology, 2022).
# System: Escherichia coli TOP10
# Assay: shrunken log2 fold change of peptide-encoding DNA abundance (4.5 h post-induction vs induction); higher = less antimicrobial activity (less host growth inhibition)
# Settings: time post-induction: 4.5 h; library: site-saturation at positions 5, 18, 19, 20
# 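Further: peptides expressed intracellularly from a pBAD plasmid library in pooled LB shake-flask culture, induced with 0.3% L-arabinose, DNA abundance read by NGS, three biological replicates, DESeq2 with apeglm shrinkage.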
row,Sequence,shrunken log2 fold change
1,RRIRGRPPRLPRPRPRPWPHPRP,0.074
2,RRIRERPPRLPRPRPRPRHTPRP,-0.187
3,RRIRNRPPRLPRPRPRPFPEPRP,-0.293
4,RRIRERPPRLPRPRPRPEIIPRP,0.0655
5,RRIRIRPPRLPRPRPRPKRHPRP,-0.0187
6,RRIRVRPPRLPRPRPRPWFNPRP,-0.437
7,RRIRERPPRLPRPRPRPMSRPRP,-0.00149
8,RRIRIRPPRLPRPRPRPHEYPRP,0.0332
9,RRIRCRPPRLPRPRPRPAWAPRP,0.108
10,RRIRMRPPRLPRPRPRPYGMPRP,0.162
11,RRIRPRPPRLPRPRPRPYVHPRP,-0.356
12,RRIRKRPPRLPRPRPRPQYIPRP,0.102
13,RRIRARPPRLPRPRPRPNYKPRP,-0.345
14,RRIRLRPPRLPRPRPRPKNWPRP,-0.0113
15,RRIRERPPRLPRPRPRPWCPPRP,-0.758
16,RRIRGRPPRLPRPRPRPTGLPRP,0.885
17,RRIRFRPPRLPRPRPRPEACPRP,-0.0833
18,RRIRVRPPRLPRPRPRPISLPRP,-0.0572
19,RRIRKRPPRLPRPRPRPVGCPRP,0.266
20,RRIRSRPPRLPRPRPRPMTHPRP,-0.469
21,RRIRVRPPRLPRPRPRPGLTPRP,-0.011
22,RRIRQRPPRLPRPRPRPMDFPRP,0.015
23,RRIRPRPPRLPRPRPRPDIIPRP,0.00942

row,Sequence,shrunken log2 fold change
1,RRIRLRPPRLPRPRPRPSLRPRP,0.00716
2,RRIRERPPRLPRPRPRPQPRPRP,0.328
3,RRIRKRPPRLPRPRPRPECSPRP,0.854
4,RRIRIRPPRLPRPRPRPFTTPRP,-0.509
5,RRIRHRPPRLPRPRPRPTSAPRP,0.0939
6,RRIRKRPPRLPRPRPRPDHMPRP,0.0864
7,RRIRERPPRLPRPRPRPEQYPRP,-0.14
8,RRIRVRPPRLPRPRPRPWDWPRP,0.163
9,RRIRRRPPRLPRPRPRPSILPRP,0.197
10,RRIRKRPPRLPRPRPRPDKSPRP,0.0207
11,RRIRPRPPRLPRPRPRPMHYPRP,-0.336
12,RRIRYRPPRLPRPRPRPNIYPRP,-0.68
13,RRIRSRPPRLPRPRPRPKAGPRP,0.19
14,RRIRIRPPRLPRPRPRPNKAPRP,0.0028
15,RRIRLRPPRLPRPRPRPDQLPRP,-0.0435
16,RRIRYRPPRLPRPRPRPGHRPRP,0.0683
17,RRIRPRPPRLPRPRPRPNAMPRP,-0.324
18,RRIRMRPPRLPRPRPRPITCPRP,-0.0534
19,RRIRGRPPRLPRPRPRPLKWPRP,0.367
20,RRIRYRPPRLPRPRPRPNSYPRP,-2.3
21,RRIRWRPPRLPRPRPRPAMWPRP,0.433
22,RRIRYRPPRLPRPRPRPTVQPRP,0.028
23,RRIRPRPPRLPRPRPRPDTSPRP,-0.738

row,Sequence,shrunken log2 fold change
1,RRIRERPPRLPRPRPRPKNYPRP,-0.463
2,RRIRFRPPRLPRPRPRPNYMPRP,-0.254
3,RRIRNRPPRLPRPRPRPQGIPRP,-0.216
4,RRIRHRPPRLPRPRPRPVWIPRP,-0.0159
5,RRIRTRPPRLPRPRPRPMTAPRP,0.154
6,RRIRKRPPRLPRPRPRPMNHPRP,0.395
7,RRIRDRPPRLPRPRPRPQEPPRP,-0.0802
8,RRIRRRPPRLPRPRPRPFIPPRP,-0.506
9,RRIRNRPPRLPRPRPRPGWHPRP,-0.154
10,RRIRFRPPRLPRPRPRPRKHPRP,0.0878
11,RRIRCRPPRLPRPRPRPHAVPRP,-0.559
12,RRIRIRPPRLPRPRPRPKLDPRP,-0.106
13,RRIRWRPPRLPRPRPRPFIYPRP,-0.467
14,RRIRLRPPRLPRPRPRPGDKPRP,0.00262
15,RRIRNRPPRLPRPRPRPPILPRP,0.144
16,RRIRMRPPRLPRPRPRPFEKPRP,0.00408
17,RRIRKRPPRLPRPRPRPLLIPRP,-0.11
18,RRIRMRPPRLPRPRPRPTDVPRP,0.141
19,RRIRGRPPRLPRPRPRPYIDPRP,0.093
20,RRIRARPPRLPRPRPRPEGFPRP,0.566
21,RRIRTRPPRLPRPRPRPIEMPRP,-0.25
22,RRIRLRPPRLPRPRPRPVEKPRP,0.0244
23,RRIRVRPPRLPRPRPRPLIPPRP,-0.406

row,Sequence,shrunken log2 fold change
1,RRIRERPPRLPRPRPRPFCSPRP,-0.204
2,RRIRLRPPRLPRPRPRPCVPPRP,-0.208
3,RRIRMRPPRLPRPRPRPMLYPRP,0.0885
4,RRIRCRPPRLPRPRPRPTYPPRP,-0.274
5,RRIRARPPRLPRPRPRPDCNPRP,0.606
6,RRIRTRPPRLPRPRPRPVHLPRP,-0.123
7,RRIRNRPPRLPRPRPRPMIWPRP,-0.166
8,RRIRHRPPRLPRPRPRPQYYPRP,-1.76
9,RRIRSRPPRLPRPRPRPRNMPRP,-0.53
10,RRIRQRPPRLPRPRPRPIDPPRP,0.0328
11,RRIRRRPPRLPRPRPRPSVHPRP,-0.278
12,RRIRYRPPRLPRPRPRPMGGPRP,-0.264
13,RRIRKRPPRLPRPRPRPKLSPRP,-0.0159
14,RRIRPRPPRLPRPRPRPGDSPRP,0.035
15,RRIRHRPPRLPRPRPRPQHDPRP,-0.281
16,RRIRNRPPRLPRPRPRPSAAPRP,0.338
17,RRIRVRPPRLPRPRPRPLSYPRP,-0.18
18,RRIRRRPPRLPRPRPRPCNMPRP,-0.152
19,RRIRCRPPRLPRPRPRPCIMPRP,-0.336
20,RRIRDRPPRLPRPRPRPTQQPRP,0.248
21,RRIRFRPPRLPRPRPRPQQCPRP,-0.181
22,RRIRTRPPRLPRPRPRPQTPPRP,0.25
